Assay results as given in US20250297004A1, “NECTIN-4 BINDING AGENTS” (INNATE PHARMA, priority 2022, published 2025).
Positions count from the first letter of the chain named.

T1: human Nectin-4 Mutant 6 (H238A/I239T/H241Q) (Homo sapiens, UniProt Q96NY8, H238A/H241Q/I239T)
T1 construct: expressed in transfected cells; host or cells: HEK293T
T1 sequence (Q96NY8 32-510 H238A/I239T/H241Q): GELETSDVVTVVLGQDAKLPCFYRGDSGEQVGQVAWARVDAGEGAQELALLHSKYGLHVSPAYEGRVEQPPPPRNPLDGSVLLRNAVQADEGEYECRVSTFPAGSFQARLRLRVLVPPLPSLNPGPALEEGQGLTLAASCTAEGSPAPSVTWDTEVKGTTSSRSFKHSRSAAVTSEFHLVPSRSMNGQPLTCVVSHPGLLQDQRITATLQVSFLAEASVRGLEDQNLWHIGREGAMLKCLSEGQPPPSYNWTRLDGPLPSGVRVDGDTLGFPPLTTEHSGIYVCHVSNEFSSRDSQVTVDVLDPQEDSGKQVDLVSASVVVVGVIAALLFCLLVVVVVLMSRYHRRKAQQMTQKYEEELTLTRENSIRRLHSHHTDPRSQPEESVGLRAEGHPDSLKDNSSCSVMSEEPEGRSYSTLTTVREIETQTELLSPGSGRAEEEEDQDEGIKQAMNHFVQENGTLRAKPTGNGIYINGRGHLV

T2: human Nectin-4 Mutant 7 (S195A/K197T/S199A) (Homo sapiens, UniProt Q96NY8, K197T/S195A/S199A)
T2 construct: expressed in transfected cells; host or cells: HEK293T
T2 sequence (Q96NY8 32-510 S195A/K197T/S199A): T1 sequence (Q96NY8 32-510 H238A/I239T/H241Q) with S164A, K166T, S168A, A207H, T208I, Q210H

T3: human Nectin-4 Mutant 7bis (A72P/G73N/K197T/S199A) (Homo sapiens, UniProt Q96NY8, A72P/G73N/K197T/S199A)
T3 construct: expressed in transfected cells; host or cells: HEK293T
T3 sequence (Q96NY8 32-510 A72P/G73N/K197T/S199A): T1 sequence (Q96NY8 32-510 H238A/I239T/H241Q) with A41P, G42N, K166T, S168A, A207H, T208I, Q210H

T4: human Nectin-4 Mutant 4 (A72P/G73N/G75S) (Homo sapiens, UniProt Q96NY8, A72P/G73N/G75S)
T4 construct: expressed in transfected cells; host or cells: HEK293T
T4 sequence (Q96NY8 32-510 A72P/G73N/G75S): T1 sequence (Q96NY8 32-510 H238A/I239T/H241Q) with A41P, G42N, G44S, A207H, T208I, Q210H

B1: N41 (antibody, V domains shown)
VH: QVQLKQSGPGLVQPSQSLSITCTVSGFSLTNYGVHWVRQSPGKGLEWLGVIWSGGSTDYNAAFISRLSISKDTSKSQVFFKMNSLQADDTAIYYCARELIHAMDNWGQGTSVTVSS
VL: DIQMTQSPASLSVSVGETVTITCRASENIYSNLAWYQQKQGNSPQLLVFAATNLADGVPSRFSGSGSGTQYSLKINSLQSEDFGTYYCQHFWGTPTFGGGTKLEIK
B2: 5E7 (antibody, V domains shown)
VH: QVQLQQPGAELVKPGASVKLSCKASGYIFTSYWMHWVKQRPGQGLEWIGEIDPSDSYTNYNQKFKGKATLTLDKSSSTTYMQLSSLTSEDSAVYYCVRGYGNYGDYWGQGTTLTVSSASTKGP
VL: DVVMTQAAFSNPVTLGTSASISCRSSKSLLHSNGITYLYWYLQKPGQSPQLLIYQMSNLASGVPDRFSSSGSGTDFTLRISRVEAEDVGVYYCAQNLELPWTFGGGTKLEIKRTVAAP

Legend:
Assay in all cases: Epitope mapping using Nectin-4 point mutants
Format in all cases: binding
[1] = target: T1, human Nectin-4 Mutant 6 (H238A/I239T/H241Q)
Description: (§1) Combined with the published structures of the Nectin-4 domains, Nectin-4 mutations at surface exposed amino acids residues were designed. Nectin-4 domain structure was modelled based on Protein Data Bank reference: 4FRW (domains V et C1). Human Nectin-4 used was NCBI Reference Sequence: NP_112178.2, mouse Nectin-4 used was NCBI Reference Sequence: AAL79833.1, cynomolgus Nectin-4 used was NCBI Reference Sequence: XP_005541277.1, rat Nectin-4 used was NCBI Reference Sequence: NP_001102546.1. The cells expressing the Nectin-4 mutants are then be used for testing anti-Nectin-4 antibodies for loss of binding to different Nectin-4 mutants to identify antibodies that bind to the same site on Nectin-4. […] FIGS. 8A and 8B show different view of a molecular model of the human Nectin-4 protein, indicating the position of substituted residues in mutants 1, 2, 3, 4, 5, 6, 7, 8 and 9.
(§2) Nectin-4 mutants were generated by PCR. The sequences amplified were run on agarose gel and purified using the Macherey Nagel PCR Clean-Up Gel Extraction kit. The purified PCR products generated for each mutant were then ligated into an expression vector, with the ClonTech InFusion system. The vectors containing the mutated sequences were prepared as Miniprep and sequenced. After sequencing, the vectors containing the mutated sequences were prepared as Midiprep using the Promega PureYield™ Plasmid Midiprep System. HEK293T cells were grown in DMEM medium (Invitrogen), transfected with vectors using Invitrogen's Lipofectamine 2000 and incubated at 37° C. in a CO2 incubator for 48 hours prior to testing for transgene expression. The targeted amino acid mutations are shown in Table 13 below, listing the residue present in wild-type Nectin-4/position of residue/residue present in mutant Nectin-4, with position reference being to the Nectin-4 protein with leader peptide shown in SEQ ID NO: 1.
(§3) (+) means that antibodies-Nectin-4 association occurs.

[2] = target: T2, human Nectin-4 Mutant 7 (S195A/K197T/S199A)
Description: as §1, §2, §3

[3] = target: T3, human Nectin-4 Mutant 7bis (A72P/G73N/K197T/S199A)
Description: as §1, §2, §3

[4] = target: T4, human Nectin-4 Mutant 4 (A72P/G73N/G75S)
Description: as §1, §2, §3

| Molecule | association with Mutant 6 [1] | association with Mutant 7 [2] | association with Mutant 7bis [3] | association with Mutant 4 [4] |
| --- | --- | --- | --- | --- |
| B1 | + | + | + | + |
| B2 | + | − | − | + |
